# Source: patent US20130089548
# Residue numbers refer to the chain shown, from its start.
# Columns and labels:
# [1] = biological target: T1, CDO intracellular domain wild type (CDO-IC wt), in vitro-translated (UniProt Q32MD9)
# T1 sequence: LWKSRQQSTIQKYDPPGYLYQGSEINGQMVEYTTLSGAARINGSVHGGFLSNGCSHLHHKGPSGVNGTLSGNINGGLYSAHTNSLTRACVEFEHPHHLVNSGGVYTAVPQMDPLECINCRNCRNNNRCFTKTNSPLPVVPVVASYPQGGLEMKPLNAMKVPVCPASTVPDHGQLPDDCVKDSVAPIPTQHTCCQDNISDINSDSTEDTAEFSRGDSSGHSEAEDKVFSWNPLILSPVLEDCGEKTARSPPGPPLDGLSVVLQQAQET
# [2] = biological target: T2, CDO-IC with Asp1178 to Asn mutation (UniProt Q32MD9)
# T2 sequence: T1 sequence with D195N
# [3] = biological target: T3, CDO-IC-D1153N (UniProt Q32MD9)
# T3 sequence: T1 sequence with D170N
# [4] = biological target: T4, CDO-IC-D1153N-D1164N (UniProt Q32MD9)
# T4 sequence: T1 sequence with D170N, D181N
substance,measurement,setting,value
Recombinant purified active caspase-3,"in vitro cleavage of in vitro-translated CDO-IC by purified active caspase-3 (autoradiograph, FIG. 5)",[1],"CDO intracellular domain (CDO-IC, amino acids 985 to 1250) was cleaved in vitro when incubated with purified active caspase-3"
same,"in vitro cleavage of in vitro-translated CDO-IC by purified active caspase-3 (autoradiograph, FIG. 5)",[2],the Asp^1178 to Asn mutation had no effect on CDO-IC cleavage
same,"in vitro cleavage of in vitro-translated CDO-IC by purified active caspase-3 (autoradiograph, FIG. 5)",[3],mutation of Asp^1153 to Asn (CDO-IC D1153N) strongly inhibited cleavage by caspase-3
same,"in vitro cleavage of in vitro-translated CDO-IC by purified active caspase-3 (autoradiograph, FIG. 5)",[4],Asp^1153/Asp^1164 to Asn double mutation almost completely suppressed caspase-3 cleavage
